Measured values published in the supplement of paper PMC10567573.

B1: IKZF1 (parent)
chain: HIKLHSGEKPFKCHLCNYACRRRD

Variants of: B1
Test: protein stability index of a GFP-peptide fusion (GPS, HEK-293T) (PSI 1-6); higher = more stable
Settings: c terminus: a fixed tail appended
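Further: lentivirally expressed fusions sorted by FACS into six bins by GFP to DsRed ratio, PSI derived from sequencing read proportions per bin multiplied by bin number.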

Protein stability index, by site and new letter:
H1: A 1.05; C 1.83; D 1.59; E 2.21; F 2.4; G 2; I 1.5; K 2.09; L 2.04; M 1.81; N 2.73; P 2.3; Q 1.26; R 2.13; T 1.17; V 1.72; W 1.93; Y 1.95
I2: C 2.44; D 2.5; E 1.78; F 2.27; G 2.29; H 2.3; K 1.86; L 2; M 2.6; N 2.14; P 2.13; Q 2.32; R 1.96; S 1.76; T 2.02; V 1.47; W 2.22; Y 1.93
K3: A 1.58; C 2.56; D 1.95; E 1.8; F 2.38; G 2.38; H 2.44; I 1.61; L 1.99; M 1.51; N 2.11; P 3.67; Q 2.03; R 1.88; S 1.91; T 1.9; V 1.83; W 2.73; Y 1.69
L4: A 1.99; C 2.33; D 2.4; E 3.72; F 1.92; G 2.21; H 4.08; I 1.72; K 4.07; M 1.58; N 1.87; P 2.19; Q 4.68; R 2.48; S 2.84; T 1.63; V 1.31; Y 2.52
H5: A 3.14; C 2.77; D 2.12; E 2.37; F 1.97; G 2.45; I 2.57; K 2.27; L 1.7; M 2.06; N 2.13; P 1.94; Q 1.78; R 1.55; S 1.18; T 1.48; V 1.78; W 1.8; Y 2.45
S6: A 1.65; C 1.51; D 1.97; E 3.3; F 2.19; G 2.02; H 1.96; I 2.38; K 1.82; L 1.93; M 2.13; N 3.35; P 2.02; Q 1.88; R 2.24; T 1.99; V 1.16; W 2.93; Y 1.79
G7: A 2.2; C 2.58; D 2.25; E 2.62; F 2.21; H 1.97; I 1.68; K 2.47; L 1.73; M 1.78; N 1.18; P 2.19; Q 2.16; R 2.08; S 1.63; T 1.15; V 3.09; W 2; Y 2.25
E8: A 1.92; C 1.97; D 1.72; F 1.72; G 2.85; H 1.93; I 1.74; K 1.5; L 1.79; M 1.63; N 1.25; P 2.17; Q 1.56; R 1.33; S 2.22; T 1.59; V 2.13; W 2.28; Y 2.06
K9: A 2.11; C 2.79; D 2.8; E 2.02; F 1.97; G 2.12; H 3.3; I 2.23; L 1.86; M 2.1; N 1.79; P 1.9; Q 1.88; R 1.81; S 2.17; T 1.42; V 1.43; W 1.26; Y 1.58
P10: A 1.55; C 1.76; D 2.14; E 1.07; F 1.91; G 1.93; H 1.67; I 2.19; K 2.73; L 1.76; M 1.58; N 2.16; Q 1.43; R 1.74; S 1.75; T 1.84; V 2.26; W 2.31; Y 2.88
F11: A 2.75; C 1.83; D 2.15; E 2.17; G 2.06; H 2.2; I 1.46; K 2.6; L 2.12; M 2.21; N 1.77; P 1.67; Q 2.41; R 1.74; S 1.64; T 1.85; V 1.46; Y 1.52
K12: A 1.77; C 2.32; D 1.68; E 2.29; F 2.25; G 2.38; H 1.7; I 1.78; L 1.82; M 2.02; N 1.67; P 1.78; Q 2.28; R 2.23; S 1.95; T 1.68; V 2.21; W 1.59; Y 2.13
C13: A 2.28; D 3.34; E 2.58; F 2.01; G 3.04; H 2.79; I 2.28; K 3; L 1.85; M 2.15; N 3.53; P 2.97; Q 2.75; R 2.26; S 2.36; T 2.91; V 2.21; W 2.73; Y 1.77
H14: A 1.5; C 3.78; D 2.82; E 1.66; F 2.32; G 1.89; I 1.55; K 2.39; L 1.88; M 1.54; N 1.69; P 1.83; Q 1.83; R 2.26; S 2.09; T 2.42; V 2.23; W 2.23; Y 1.45
L15: A 2.28; C 2.66; D 1.74; E 2.5; F 1.89; G 2.43; H 2.14; I 2.44; K 2.68; M 1.36; N 2.27; P 2.64; Q 2.47; R 2.3; S 2.11; T 2.92; V 1.78; W 2.44; Y 1.63
C16: A 2.04; D 2.98; E 3.02; F 2.05; G 3.03; H 2.29; I 2.35; K 2.91; L 2.26; M 2.04; N 2.8; P 2.2; Q 2.12; R 2.81; S 2.96; T 2.8; V 1.81; W 2.14; Y 1.88
N17: A 2.67; C 1.3; D 1.47; F 2.79; G 2.05; H 1.98; I 2.86; K 1.2; L 2.07; M 1.86; P 1.56; Q 1.43; R 1.53; S 1.97; T 2.12; V 2.39; W 1.62; Y 1.52
Y18: A 2.04; C 2.04; D 2.7; E 2.02; F 2.07; G 2.84; H 1.82; I 1.48; K 1.99; L 2.23; M 2.17; N 1.88; P 1.94; Q 2.67; R 2.15; S 1.58
